In PMC6645366:

B1: CUUGUAUAUAG (ssRNA)
RNA: CUUGUAUAUAG
B2: S1a RNA (ssRNA)
RNA: UCUCUUUGUAUAUAUCUCUU
B3: 8-mer consensus (ssRNA)
RNA: UGUAUAUA
B4: 8-mer 5G (ssRNA)
RNA: UGUAGAUA
B5: 8-mer 7G (ssRNA)
RNA: UGUAUAGA

Assays:
[1] = molecular target: T1, PUM2 RNA-binding domain (Homo sapiens, UniProt Q8TB72 706-1059); test: EMSA
[2] = molecular target: T1, PUM2 RNA-binding domain; test: EMSA; remark: listed apart in the source
[3] = molecular target: T1, PUM2 RNA-binding domain; test: competition EMSA

T1 sequence (Q8TB72 706-1059): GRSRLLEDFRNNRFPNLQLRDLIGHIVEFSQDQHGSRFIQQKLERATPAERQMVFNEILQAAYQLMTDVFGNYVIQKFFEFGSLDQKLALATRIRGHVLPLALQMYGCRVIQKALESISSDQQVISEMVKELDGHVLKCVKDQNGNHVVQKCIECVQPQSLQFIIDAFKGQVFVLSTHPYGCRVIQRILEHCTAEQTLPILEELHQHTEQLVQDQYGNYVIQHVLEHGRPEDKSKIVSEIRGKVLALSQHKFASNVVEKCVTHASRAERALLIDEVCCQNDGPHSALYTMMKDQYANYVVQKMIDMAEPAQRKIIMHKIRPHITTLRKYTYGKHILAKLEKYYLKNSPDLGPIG

Binder | binding result [3] | also measured
B1 | – | binding result [1]: binds
B2 | – | binding result [2]: binds
B3 | binds | –
B4 | binds | –
B5 | binds | –
